In this test the target is West Nile virus envelope (E) protein (West Nile virus).

In turn, “Aedes aegypti pupal cuticle (PC) protein (AAEL011045) (natural protein)” gave a survival of mice injected i.p. with WNV pre-incubated with PC protein for an hour at 37°C (against WNV alone, all of which died within 14 days p.i.) of 60%.

The values above are taken from article PMC3164632.
